# Positions count from the first letter of the chain named.
# B1: ARC1157 (mixed)
# RNA: ACAGGCAAGUAAUUGGGGAGUGCGGGCGGGGUGU
# modifications: deoxy A,G; 2'-OMe C,U; PS 12-13 [PS between 12-13; 2'-OMe C,U at 2,6,10,13,14,21,23,27,32,34; deoxy A,G at all other positions]
# B2: ARC1168 (mixed)
# RNA: B1 RNA
# modifications: deoxy A,G; 2'-OMe C,U; PS 32-33 [PS linkage 32-33; 2'-OMe C,U at 2,6,10,13,14,21,23,27,32,34; all A,G 2'-deoxy]
# B3: ARC1164 (mixed)
# RNA: B1 RNA
# modifications: deoxy A,G; 2'-OMe C,U; PS 22-23 [PS between 22-23; 2'-OMe C,U at 2,6,10,13,14,21,23,27,32,34; deoxy A,G at all other positions]
# B4: ARC1159 (mixed)
# RNA: B1 RNA
# modifications: deoxy A,G; 2'-OMe C,U; PS 14-15 [PS between 14-15; 2'-OMe C,U at 2,6,10,13,14,21,23,27,32,34; deoxy A,G at all other positions]
# B5: ARC1169 (mixed)
# RNA: B1 RNA
# modifications: deoxy A,G; 2'-OMe C,U; PS 33-34 [PS linkage 33-34; 2'-OMe C,U at 2,6,10,13,14,21,23,27,32,34; all A,G 2'-deoxy]
# B6: rRmY clone SEQ 79 (ssRNA)
# RNA: GGGAGAGGAGAGAACGUUCUACAAAAGGCAGGCUCAGGGGAUCACUGGAAGUCGCUGUCGAUCGAUCGAUCGAUG
# modifications: 2'-OMe C,U
# B7: rRmY clone SEQ 87 (ssRNA)
# RNA: AGGAGAGGAGAGAACGUUCUACUAGAAGCAGGCUCGAAUACAAUUCGGAAGUCGCUGUCGAUCGAUCGAUCGAUG
# modifications: 2'-OMe C,U
# B8: rRmY clone SEQ 86 (ssRNA)
# RNA: GGGAGAGGAGAGAACGUUCUACUAAUGCAGGCUCAGUUACUACUGGAAGUCGCUGUCGAUCGAUCGAUCGAUG
# modifications: 2'-OMe C,U
# B9: rRmY clone SEQ 73 (ssRNA)
# RNA: GGGAGAGGAGAGAACGUUCUACAAAUGAGAGCAGGCCGAAAAGGAGUCGCUCGCUGUCGAUCGAUCGAUCGAUG
# modifications: 2'-OMe C,U
# B10: rRmY clone SEQ 72 (ssRNA)
# RNA: B9 RNA
# modifications: 2'-OMe C,U
# B11: rRmY clone SEQ 71 (ssRNA)
# RNA: B9 RNA with A41G
# modifications: 2'-OMe C,U
# B12: rRmY clone SEQ 78 (ssRNA)
# RNA: B9 RNA with U26A
# modifications: 2'-OMe C,U
# B13: rRmY clone SEQ 81 (ssRNA)
# RNA: B9 RNA with A23G
# modifications: 2'-OMe C,U
# B14: rRmY clone SEQ 75 (ssRNA)
# RNA: GGGAGAGGAGAGAACGUUCUACAGGUUAAGAGCAGGCUCAGGAAUGGAAGUCGCUGUCGAUCGAUCGAUCGAUG
# modifications: 2'-OMe C,U
# B15: rRmY clone SEQ 74 (ssRNA)
# RNA: GGGAGAGGAGAGAACGUUCUACGGUAAAGCAGGCUGACUGAAAGGUUGAAGUCGCUGUCGAUCGAUCGAUCGAUG
# modifications: 2'-OMe C,U
# B16: rRmY clone SEQ 82 (ssRNA)
# RNA: GGGAGAGGAGAGAACGUUCUACGAGAGGCAAGAGAGAGUCGCAUAAAAAAGACGCUGUCGAUCGAUCGAUCGAUG
# modifications: 2'-OMe C,U
# B17: rRmY clone SEQ 77 (ssRNA)
# RNA: GGGAGAGGAGAGAACGUUCUACAACAAAGCAGGCUCAUAGUAAUAUGGAAGUCGCUGUCGAUCGAUCGAUCGAUG
# modifications: 2'-OMe C,U
# B18: rRmY clone SEQ 84 (ssRNA)
# RNA: GGGAGAGGAGAGAACGUUCUACGGAAAAAGAUAUGAAAGAAAGGAUUAAGAGACGCUGUCGAUCGAUCGAUCGAUG
# modifications: 2'-OMe C,U
# B19: B10.min1 (ssRNA)
# RNA: GGAGCGAAUCAUACACAAGAAGUGCUUCAUGCGGCAAACUGCAUGACGUCGAAUAGAUAUGCUCC
# modifications: 2'-F C,U
# B20: A10.min1 (ssRNA)
# RNA: GGAGAUCAUACACAAGAAGUUUUUUGUGCUCUGAGUACUCAGCGUCCGUAAGGGAUCUCC
# modifications: 2'-F C,U
# B21: C11.1 (ssRNA)
# RNA: GGAAGAAUGGUCGGAAUCUCUGGCGCCACGCUGAGUAUAGACGGAAGCUCCGCCAGA
# modifications: 2'-F C,U
# B22: C10.1 (ssRNA)
# RNA: GGACACAAGAGAUGUAUUCAGGCGGUCCGCAUUGAUGUCAGUUAUGCGUAGCUCCGCC
# modifications: 2'-F C,U
# Target: T1, IL-23 (human, p19/p40 heterodimer) (Homo sapiens, UniProt Q9NPF7;P29460 SEQ:20-189,SEQ:23-328)
# T1 sequence (Q9NPF7 20-189, chain 1 of 2): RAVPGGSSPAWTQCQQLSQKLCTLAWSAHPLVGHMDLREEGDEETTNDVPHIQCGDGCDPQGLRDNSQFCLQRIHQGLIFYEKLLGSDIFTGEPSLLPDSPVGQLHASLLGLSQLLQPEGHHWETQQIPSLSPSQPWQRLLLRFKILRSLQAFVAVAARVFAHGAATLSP
# T1 sequence (P29460 23-328, chain 2 of 2): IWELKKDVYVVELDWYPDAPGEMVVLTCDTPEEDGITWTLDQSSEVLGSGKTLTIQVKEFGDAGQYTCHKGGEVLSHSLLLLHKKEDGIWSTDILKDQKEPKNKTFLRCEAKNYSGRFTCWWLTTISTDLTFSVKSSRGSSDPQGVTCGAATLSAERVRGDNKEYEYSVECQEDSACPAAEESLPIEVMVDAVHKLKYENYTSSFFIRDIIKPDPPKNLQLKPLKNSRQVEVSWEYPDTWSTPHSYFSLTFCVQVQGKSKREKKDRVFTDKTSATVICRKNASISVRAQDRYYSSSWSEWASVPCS
# Assay: filter; -tRNA
# Details: tags: R&D Systems, carrier free
# Protocol: These molecules were gel purified and assayed for IL-23 binding using the dot blot assay as described above and compared to each other and to the parent molecule, ARC979. An 8 point IL-23 titration (0 nM to 300 nM, 3 fold serial dilutions) was used in the binding assay.
row,Binder,Kd
1,B1,0.069 µM
2,B2,0.082 µM
3,B3,0.079 µM
4,B4,0.077 µM
5,B5,0.074 µM

# Target: T1, IL-23 (human, p19/p40 heterodimer)
# Assay: filter; DPBS Ca Mg
# Details: tags: R&D Systems, carrier free
# Protocol: The selection progress was monitored using the dot blot sandwich filter binding assay as described in Example 1A. The 5′-³²P-labeled pool RNA was refolded at 90° C. for 3 minutes and cooled to room temperature for 10 minutes. Next, pool RNA (trace concentration) was incubated with h-IL-23 DPBS plus 0.1 mg/mL tRNA for 30 minutes at room temperature and then applied to a nitrocellulose and nylon filter sandwich in a dot blot apparatus (Schleicher and Schuell). The percentage of pool RNA bound to the nitrocellulose was calculated and monitored approximately every 3 rounds with a single point screen (+/−250 nM h-IL-23). Pool KD measurements were measured using a titration of h-IL-23 protein (R&D, Minneapolis, Minn.) and the dot blot apparatus as described above.
# The rRmY h-IL-23 selection was enriched for h-IL-23 binding vs. the naïve pool after 4 rounds of selection (data not shown). The selection stringency was increased and the selection was continued for 8 more rounds. […] The rGmH selection was enriched over the naïve pool binding at Round 10. […] FIG. 7 is a binding curve of rRmY and rGmH pool selection binding to h-IL-23. The pools were cloned using TOPO TA cloning kit (Invitrogen, Carlsbad, Calif.) and individual sequences were generated and tested for binding. A single point binding screen was initially performed on all crude rRmY clone transcriptions using a 1:200 dilution, +/−200 nM IL-23, plus 0.1 mg/mL competitor tRNA. […] The 10 point screen was performed using zero to 480 nM IL-23 in 3 fold serial dilutions. Binding curves were generated (KaleidaGraph v. 3.51, Synergy Software) and KDs were estimated by fitting the data to the equation: fraction RNA bound=amplitude[h-IL-23]/KD+[h-IL-23]). […] There was one group of 6 duplicate sequences and 4 pairs of 2 duplicate sequences out of the rRmY clones generated. […] Clones were also tested from 48 crude rGmH clone transcriptions at a 1:200 dilution and 0.1 mg/mL tRNA was used as competitor.
row,Binder,Kd
1,B6,0.807 µM
2,B7,0.122 µM
3,B8,0.219 µM
4,B9,0.101 µM
5,B10,0.211 µM
6,B11,0.124 µM
7,B12,0.124 µM
8,B13,0.303 µM
9,B14,0.479 µM
10,B15,0.257 µM
11,B16,0.199 µM
12,B17,0.259 µM
13,B18,0.603 µM

# Target: T1, IL-23 (human, p19/p40 heterodimer)
# Assay: filter; 100 nM IL-23
# Details: tags: R&D Systems, carrier free
row,Binder,binding signal
1,"GGAGUCUGAGUACUCAGCGUCCCGAGAGGGGAUAUGCUCCGCCAGACUCC (ssRNA, 2'-F C,U) [A10.min4]",0.7 +/- ratio
2,B19,33.9 +/- ratio
3,"GGUUAAAUCUCAUCGUCCCCGUUUGGGGAU (ssRNA, 2'-F C,U) [F11.min1]",0.6 +/- ratio
4,"GGAAUCAUACACAAGAGUGUAUUACCCCCAACCCAGGGGGACCAUUCC (ssRNA, 2'-F C,U) [D9.1]",3.9 +/- ratio
5,"GGAGUCUGAGUACUCAGCGUCCGUAAGGGAUAUGCUCCGCCAGACUCC (ssRNA, 2'-F C,U) [A10.min2]",6 +/- ratio
6,"GGCAUACACGAGAGUGCUGUCGAAAGACUCGGCCGAGAGGCUAUGCC (ssRNA, 2'-F C,U) [Type 1.1]",0.9 +/- ratio
7,"GGCAUACGCGAGAGCGCUGGCGAAAGCCUCGGCCGAGAGGCUAUGCC (ssRNA, 2'-F C,U) [Type 1.2]",0.7 +/- ratio
8,B20,3.1 +/- ratio
9,B21,3.5 +/- ratio
10,"GGAUACCCGAGAGGGCUGGCGAAAGCCUCGGCGAGAGCUAUCC (ssRNA, 2'-F C,U) [Type 1.3]",0.6 +/- ratio
11,"GGAAUCAUACCGAGAGGUAUUACCCCGAAAGGGGACCAUUCC (ssRNA, 2'-F C,U) [Type 2.1]",5.2 +/- ratio
12,"GGAGGCGCCACGCUGAGUAUAGACGGAAGCUCCGCCUCC (ssRNA, 2'-F C,U) [C11.2]",2.3 +/- ratio
13,"GGAUCAUACACAAGAAGUGCUUCACGAAAGUGACGUCGAAUAGAUCC (ssRNA, 2'-F C,U) [B10.min3]",0.8 +/- ratio
14,B22,4.4 +/- ratio

# From patent US20060193821, “Aptamers to the human IL-12 cytokine family and their use as autoimmune disease therapeutics” (published 2006)
